Experimental data published in the DeepSol protein solubility set.

experiment: soluble on expression in E. coli; label from the status in PepcDB or PDB records

Soluble on expression in E. coli, not soluble:
MAHHHHHHMMRERAAALDDLNALLTVNKDHPQGLALRMSLNTQLGNLVDAHRDGKHLVRVYKALNKPDKSQQTSEKVHRLERYTVRWTALSDLWSQPVGAYTAATNDAVLMRKYRECVDLLARIIHEFSMESVELRLRRAACALAADDNIAATQELKYVTQRSPQNLDAIALNAQALRRLGALDQSMSELRRCLNLDPEYAPCANLHKLIRQQQRMTKNIEKRLQEKKFEAVVQLIAETRAAEPHAPYEEQLAAWHCEALVSLRSTDEGIRVCQALVDRYDGANNPTVFDAHIRLAELHLLDDNIAAAEAALQKAREIRQHDGKVEEMRLKIEKLKRTGPRKDYYKILGLKKTASAQEIRRAYRKLAKSSHPDQLRSKDMTDREREKQEKMFRDVNEAKEVLLDEEKRARYDSGEDVNQPAGQRGEPFFGSHFAGGFPGGFPGGFPGGFPGGFPGGFHQQRDGGVHQQFFFFNREN
MAHHHHHHMNEAAPFCVAPQTWQGGLARYPVSQSHVWNNNIILQPEDIDVEVFNAMSQVESQYNKNEISVEDFEMLQLTFCLFTVNQSCYDLIPNGREIRVTQANAFEFFQRVHAAYDNMKQRPALNQPTQSNHRPRLRTSGTRLRLTGQDTDSLEWIRWTAQNNPAALAFHPDEPLRWAVVPRSRDFMIRVQPEGENTFVDPDHLTLFLDMLAVLLTEIERAISVFGYYPPNCVSAAPVECADEYSIYTSHTTRATRLPFPSQRVNSRGFSALHKFPMPVTAAAAAAAAAATEQNRRTVRRASSADLENQRALCSPTHDTGGLLAPFQEWNV
MAHHHHHHMNIFKYYNIYLPLSVLGFVHIEVKSNNDVLNNSLSSISFNNYIFGRILSTNESADVVVEKPMEEKLNNTNENIDETHEESDPSNSTEETVKKCISNILDMTCDSRGHALILANNILRSQNVNEEVIILNEHDLLSQFLNGDVSNIFSDNKSIFKDLLDKDICSTYEVNFDQNSKCTLLTNKNDLQISEDILLLGNESEETNKLLDLWKRVMKNEESKLYLLKRNLYQQHLKLRNRSRLSHDKLNNILNECNVLVKKYNNNYDKTINNIFKEWSTVTPHNIFEFKLFIKACRLTWRKSIKNLHAEYTELLKRSFN
MAHHHHHHMNSTLVHDLQQFRYVTAFTNPLPWPHVRRVSIPGLRHEAPDLPFMANLISALSDCDVSLHKIHEHNDTDILQLVQVLQACLQFSLWSQNILKEKLLEVQATHVAKGVSAQQLENLEKRYHALEGEMAALHKDRGMLSLGTANLRTSLAQMEKTIKRQERQLQQERGRNAQLVAKLEKALCARAVAAPLMSAPRLPPPRESQQRPAGNRHASAPTHRTTKATTVYDSSRLPTDNADAHRDSIASLTSDTSYGDSCLSAEVAARTHSHVPQPCDSLDPPPPPFLDWRTLVRYIIHEEQRASVWASNHASPTAARATADERGIASKEELMPAAQHPSKPAAALPAAATQRVTEAQLDSFFAGLTAGVTTEVVAYSRAVAARVEEMVRAATQQWIQETAEAQQALMAQVQAALGSLGAELAVHKQLKDATPSPALRTVAMPVATSDASDPHAQLAPFSPVLASSSVRNSAAAALPAPCQHAGNALVTLANAPPTNDSKPLSQPPQTSASPLTPSIDSSPPASFLNSFVMSGTALCHSTTGCEVLDGGSKTRTPLPDFSPDILRTPPTSEHGTAAAPLGTGSDGPRSVVSRADDADERDVDVDLLPLDSSSSDSSSGSSQRSDGTADGVAEVSHAYARVLAKPSSPPPMYPNKTPTAAAFVVQPAAPTHPSANRTLSLHFSTRSDVSEGSSYGSSQMLRETRAQLQALLEEEEAAGRAKTHR
MAHHHHHHMPELSYMFSSVSEPRALGAADDGQVITSHSNSSNNNHNNFYPLYSASGSTKVSNYGGHFENNGNNIISMNNKSDVNANTCGDSGEKGNEGEKWIWVLDPLTRKLRVPLSQLVHTQATATTGTVPSLCISFLEGRCRHQWCRQAHVLPSAIPQLRHEALHAPTCCRLHDDPHDTSVLTSRFKYIRVV
MAHHHHHHMPGIKIEEVISTTKRQRVAAHSHVKGLGLDADGSAKPSADGFVGQVKAREAAGIVVELTRSKKMAGRALLFAGPPGTGKTALALGIAKELGPKVPFCPMVGSEVYSAEVKKTEVLMENFRRAIGLRIKEQKEVYEGEVTELRAEETDNPLGGYGKSIAHVIVTLKSVKGSKQLKLDAAIYESLEKEKVSVGDVIYIEASTGAVKRVGRSDAYIGDHDLEADEYVPLPKGDVHKKKEIIQDVTLHDLDSANAKPNQGQDALSIVNSLMKQKKTEITEKLRHEINKVVNKYIDQGVAELVPGVLFIDEVHMLDIECFTFLNKALESTLAPVVIFATNRGSCRIRGTDIRSPHGIPTDLLDRLLIVRTTNYSIEEIVSIVDIRSQVEGVKVSDASLELLGQIGERTSLRYVVQLLTPALIIAETNGRTVIEAEDVMLVDGLFKDAKASAQLLHEHADEYVYQ
MAHHHHHHMPLRACVSRTPAQARLVEVVSDYVQHLMDMQASRCAETSLDGHVVPPPNAKYPSHDFFCATHAPAISVKKYTDRLVTYMHCSPEAFVFAVAYLRRLVLSGFPMHLQSIHRLLLTAVLVALKCRDDVYYHMSFYAEVGGVTSKDLRIMEIRFLSDLIRFEGEVSLADYHVVMVDMMRVTERRMITNISGKTEMCNRCGMSAGAFTTSIPGDLGCLHCKGDAFAHSWTSECELFWGPLNSAFSLPSGEV
MAHHHHHHMQAQMMLGQALEHYAMMDFANLVLEQCWDICYDSQLTRPELAGGALPDVKAQKMDACARKCVARHFEVLTLLSATRELREKERMQGLPPGTLTSM
MAHHHHHHMQLQPPKPIIKDFNVGISPLVQTRLPLVFAQGEYPPPMQDVLLVGISLKADFSAVWDWNTKHMYVACIGRYHTKSNMTVGGVNLQKTHDVTIFDKVLRSKEEAANWTLDNAKKYALENEELGSLAGAAVELMILYHPMRHYGYSPYYTVQPGKNPVMFQLPTAYEKRTEEDDKNAMCSRGYA
MAHHHHHHMQMRWIVDAEERYRRSLTWKPAVGTIYDHKIVMKRGGSSHVQYRFDVDGKEYLGDRFRSGGVHKEEMVSNPALLGAGTQLVVYYNPSDPSESAIKLQTDRAAESAFLVGITISLLVAYRSVRCETILPNMFYSFLAVNRRLGGITGLREARTHSKQKMKYGKGTGAI
MAHHHHHHMQQENRHLSSADLFKKFTLQNVAQIANISNKEQSQIRGELTEQYPLLADFWEDIMPKKPDIMLVRCHDQVHCVTLVSSQPEVLFFRHHNSPYIPHLKLLHKYPFILPRQQVDIGGCKYVVSGANVMCPGLTSEGGYITPGLAAGAIVAIHVEQKEHAIAVGRMLMSSEEIERVNNGPGIENIHHLGDGLWMNRVLSSSHIGAR
MAHHHHHHMQRNEVESLEGLVLLVQLRVLVAHHNAVTSLRPIAVLPALSFIDARSNKIEDVNPMEDLPCDSLKYLALLDNPCCNGDRSVDREQIMKACPKLAMLDDVPRDPSAEKVTGSEEEENSDEEDGCKRWHAVSETPTGCSKGVSSRIHLYRSLKMCEPLPVSVPSLEPIPVTSQDIDTNRVTTTTDRLCEQLRHRSSAIRRMAGHHALGQTEVSDPVWDFGNHVENDGDSEHRSNGRRRLDSPESTLSLTLPPELEQERATKARLYDDIRFALQADDRRLRQLAGVVWDDVDKVLSTRQALVGHRRHRMHTAHQQPSDAYAKSLEILKHENRVANLDKYRKQENANAPQ

Soluble on expression in E. coli, soluble:
MAHHHHHHMMYTGEIENGQMHGRGCLIYPNKEKYEGDWVYGKRHGHGVYTYADGSKYDGEWVEDKVHGKGTCYYASGNRYSGDWTFGRINGRGTLEYADGDRYDGEWKDGRMHGKGLYYYSNGDRYDGEWKDDKRHGKGTVTYAGPDGSVSEKFDGDWVEGRMQGWGKYYYADGGVYEGEWQDGKMHGKGTYIFPNGNKYEGEWCDDVKQGYGVLTYVNGERYEGYWLDDKAHGTGTLTYLQGDRYTGEWYQGKKHGRGTLAYSNKDTYEGEWRNDSATGRGVLEYANGCRYEGDWLDDRRHGEGQLLLPDGSSYEGGWVNGKKEGRARIILKCGAVFVGTWKDNLIVGQGEFYLSENCDLNNPDY
MAHHHHHHMNRWRPFSKVRHFSGLTKLTNVREHQDEIISCIEKVKVVNPLVHCITNRVTTEKVANSLLAFGSSPAMIDNPKEVEQFAEIASCTYFNLGLHTSQVENIHVLDKMRQEKKKEEFILVIDPIAVGATQYRTNLIKDILVKCKPNVIKGNVAEIFYLDKGEFFGKGVDSNSSSSHTPNDIIASARNVALKYNCAVVVTSKADIIVSPCSKFVAQINCDLKILTKITGSGCSVGALCAAATSVIPQNPFIACTAATLIYKLAAFKAYQKETGPGTLSHQIIDNIYFYSNHPHFMNLQLVDVYAVS
MAHHHHHHMNSGYPGPSGITVGSPGLPPGSLGSPFPEQMTSAHSSDGMQGSNASQVPLTIHADVDQHSKSHSPTLTSGVEVLFATHQPPVAGVNAPWDEDDDWSTPGAPAQHPASVGAPAKPPLPPGNNAPPPILIAEQMNPGSPAEPHPTPVAMSPPPSSDGFIASSSRAGSPNCPPTPLEKPSAANVAKVDALMKQIASRTAAMDAATKEKEMKIVTAAQEYLKALMAKRGEEVMNAKAIHKEEQQVGAEKINEHKKSGDVWSAVGLLVDLQKPNQYSRSTEQMRTVLSALNATPAKK
MAHHHHHHMPGPGLLADGWFREENGQWPGQAMSFKVEEVLHDTPTKFQHLSIFETDPKGPWGTVMTLDGCIQLTDFDEFVYHEMLSHTPLCAHPDPVDVLIIGGGDGGVMREVLRHGTVKRCVLVDIDGDVIEASKKYFPQISSGFSDPRADVRVGDGVAFVREAASESFDVVIIDTTDPDGPAAELFGEKFYRDVLRILKPRGICCNQGESVWLNRNLIEGMADFIKNKVGFASVKYAMIYTPTYPCGSIGSLICSKVAGVDVTQPVRPVESMPFAGELKYYDSDVHKAAFVLPRFARHLNQNYS
MAHHHHHHMPHEDHKKYRVQREDLPAMPHFSDFNDPRFCGTTNKQKNGILAYYQWLHCIGNWGEEHSMCKKMRWYVERMMHETWLEKWEEKRALGHFDHTVLYGVKPWKEFEPLYQPVKKNRKGAYEYWLDRDFEPLYDVDAADWRERAPILHDMFVLGKKPVSE
MAHHHHHHMPQKPLFFIYFFFFQDTPDFGGVDTQTNNNNKKRGFTRDGRGKLAGGDAHSRRDRRMRLRGWGHTAFQTRLNGSRCWGSRGASSASQCVALRSASSSFSMSTSRSPFDAVYVINLNRRPDRWKFILRQLQRAGFREGEYERFTAVDGRAVDIQKAQACGLVSLLGILRLREEESRRIWGMDLNPAAVGCALSHVLLWATIAARRYHRVLVVEDDSLFPHDFQKKYDERMRHVPQDWELVYVSGLDTADQTSQLRVAEGVSRVPQMHRTTNCYVVTHHGARRLLELCLPMTYQLDTMMTMHAVSDPQSGVPHVTSPVCYTLQPPLVVQATRMGSDIQSSNGRDEQEEERARCRAAGWTTD
MAHHHHHHMQDDKINSKDDISSSSSCEENDENKNILNPPNRTKMSKGERRARKMLVKLGLKAIPNVHKVIIKKSQKMVFAVSNVEVYKVEGTDSYVIFGDAKTDDITNSINNFIPENLPKDVDVPVEPEINFEAADKEEQKVKDLDDENVGDVSMDDVELIMSQTKCSRDMAISALRKNNNDFVQSIMELSG
MAHHHHHHMQRHSSHLLLLLVAVVIPVCSEDKLDFTKLRDPFDMDEINRKLQEKVADDDPVQKAMPDPMDPKFRAPLRCSACGAVIEHAVRLLRPIIERQSERAARSGGVLPADALPKEYEMVDIFENLCGEVGRLYGLEVEKDKKRPTLRFSKSFGVSRLQGAWMPSFLTSTCEGVLDVEGEEKLAAMILGVARSEAEAGRGKVISMNPDQGIVDKVREMVCTKWEESAKGCDAYGVAIDPRETDNDDGAEEAASDL
